Measurements published in the nanobody polyreactivity screen of Harvey et al. (2022).

Assay: yeast display, Sf9 membrane polyspecificity reagent, FACS + sequencing; frameworks hold sequencing errors
In short: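 A synthetic nanobody library was expressed on Saccharomyces cerevisiae BJ5465 by galactose induction for 36–48 hours. The library was stained for 1 hour at 4 °C with 10% biotinylated, detergent-solubilized Sf9 membrane reagent and enriched with streptavidin microbeads before FACS. Low and high (top ~1%) gates were set on anti-HA fluorescence for expression and streptavidin fluorescence for reagent binding, and each polyreactivity label reflects the gate of origin.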

| Sequence | polyreactivity (PSR sort gate) |
| --- | --- |
| QFQLVESGGGLVQAGGSLRLSCADSGSTFFNNAMGWYRHAPGKERELVAAITSSGGSTYYADSVKGRFSISRDNAKNTVYLQMNSLKPEDTAVYYCNKKSALYRRYDYWGQGTQVTVSS | low polyreactivity |
| QFQLVESGGGLVQAGGSLRLSCASSGSTFGYNAMGWYRQAPGKESELVAAISYSGGSTSYADSVKGRFTISRDNAKNTVYLQMNSLKPEDSAVYYCASDSYSQYSSQALEGFGYWGQGTQVTVSS | low polyreactivity |
| QFQLVESGGGLVQAGGSLRLSSAASGFTFVYYVMGWYRQAPGKERELVAAINAGGGSTYYADSVKGRITISRDNAKNTVYLQMYSLKPEDTAVYSFNARVRVRWGRNWSSYYYWGQGTQVTVSS | high polyreactivity |
| QFQLVESGGGLVQAGGSLRLSYAASGRTFSSYAMGWYRQAPGKERELVAAITKRGGNTYYADSVKGRFTISRDNAKNTVYLQMNSLKPEDTAVYYCAAGWERFRNYNYWGQGTQVTVSS | high polyreactivity |
| QFQLVESGGGLVQAGGSLRLTCAASGNIFADYAMGWYRQAPGKERELVAAISRGGITSYADSVKGRFTISRDNAKNTVYLQMNSRKPEDTAVYYCATVRYDVYDSLGFGYWGQGTQVTVSS | low polyreactivity |
| QFQLVESGGGLVQAGGSLRLTCAASVSTFSSYVMGWYRQAPGKDRELVAAISSIGGSTYYADSVKGRFTISRDNAKTNDYLQMNSLKPEDTAVYYCAAEPPGSTYEGGYWGQGTQVTVSS | low polyreactivity |
| QFQLVESGGGLVQAGGSLRSSCAASGFIFREYAMGWYRQAPGKERELVAAISTSGGDTYYADSVKGRFTISRDNAKNTVYLQMNSLKPEDTAVYYCAAEYDGYWDSNRGNYWGQGTQVTVSS | low polyreactivity |
| QFQLVESGGGLVQAGGSLSLSCAASGSTFSFNARGSYRQAPGKERELVAAITSGGSTYYADSVKGRFTISRDNAKNTVYLQMNSLKPEDTAVYYCAAAWAYGFGTRRYYWGQGTQVTVSS | high polyreactivity |
| QFQLVESGGGLVQAGGSLSLSCAASGSTFVWYAMGWYRPAPGKERELVAAINFGGTTYYADSVKGRFTISRDNAKNTVYLQMNSLKPEDNAVYYCATEYDYGYWYPDGWVIFDYWVQGTQVTVSS | low polyreactivity |
| QFQLVESGGGLVQAVVSLRLSCAASGSIFDIYDMGWYRQAPGKETELDAAIRSGDRTHYADSVKGRFTISRDNAKITVYLQMNSLKPEDTAVYYCAADRYIYLNREHDYWGQGTQVTVSS | low polyreactivity |
| QFQLVESGGGLVQSGGSLRLSCAASGSTFGYYTMGWYRPAPGTERELVAAITWSGGSTYYADSVKGRFTISRDNAKNTVYLPMNSLKPEDTAVYYCAADDYWTPFGYWGQGTQVTVSS | low polyreactivity |
| QFQLVESGGRLVQAGGSLRLSCAASGSIFYLNAIGSYRQAPGKERELVAAISRSGGRTYYADSVKGRFTISRDNAKNTVYLQMNSLIPEDTAVYYCAADVQAQGAYRGGYWGQGTQVTVSS | high polyreactivity |
| QFQLVESGRGLVQAGGSLRLSCAASGSTFSANAMGWYRQAPGKERELVAAISRSGTRTYYADSVKGRFTISRDNAKNTVYLQMNSLKPEDTAVYYCAAYVYQYGYDYWGQGTQVTVSS | high polyreactivity |
| QFQLVESGVGLVQAGARLRLSSAASGFTIKYYAMGWYRQAPGKERELVATITRGGSTNYADSVKGRFTISRDNAKNTVYLQMNSLNPEDTAVYYCAKGYPYYYYDYDSWGQGTQVTVSS | high polyreactivity |
| QFQLVESGVVLVQAAASLRLSCAASGIIFQRNDMGWNRQAPGKETDLVANIRDGGITNADSVKGRFTISRDNAKNTVYLQMNCLKPEDTAVYYCARDDTSPGYGDQSSNAAYYYWGQGTQVTVSS | low polyreactivity |
| QFQLVESRGGLVKAGGSLRLTCAASGSILYQNTMGWYRQATGKERELVAAISGSGSRTYYADSVKGRFTISRDNAKNTVYLQMNSLKPEDTAVYYCAASGYWPFRSGFGYWGQGTQVTVSS | high polyreactivity |
| QFQLVESVGGLVQAGSRLRLSCAASGRTFIPYAMGWYRQAPGKERELVAAITSSGGLTYYADSVMGRFTISRDNAKNTVYLQMNSLKPEDTAVYYCNKYARGYDMDYWGHGTQVTVSS | high polyreactivity |
| QFQLVYSGGGLVQAGGSLRLSCAASGRTYGIYAMVWYRQAPGKERDLVAAISSDASTSYADSLKGRFTISRDNAKITVYLQMNSLKPEDTAVYYCGADPGTYYEWGYVYWGQGTQVTVSS | low polyreactivity |
| QGHLVESWGGLVQAGGSLRLSCAASGSIFKDNAMGWYRQAPGKERELVAAITWSGGSTYYADSVKGRFTSSRDNANNTVYLQMNSLKAEDTAVDRYKYDYWGQGTQVTVSS | low polyreactivity |
| QGQLEESGGCLVQAGGSLRLSCAASGIIFYKNAMGWYRPAPGKERELVAAISGSGGRTYYADSVKGRFTISRDNAKNTVYLQMNSLKPEVTAVSYCAARQPYRHGYESWGQGTQVTVSS | high polyreactivity |
| QGQLEESGGGLVQAGCSLRRSCAASGNIFLIYAMGWSRQAPGKEGELVAAISFSDDTTDYADSVKGRFTSSRDNAKNTAYIQMNSLKPEDTAVYYCAAELYYDVANTQYDYWGQGTQVTVSS | high polyreactivity |
| QGQLEESGGGLVQAGGSLRLSCAASGFIIYDYDMGRYRQAPGKERELVAAITYSGGSTYYADSVKGRFTISRDNAKNTVYLQMNSLKPEDTAVYHCAAVKSRYAVAVDYYYWGQGTQVTVSS | low polyreactivity |

| Sequence | polyreactivity (PSR sort gate) |
| --- | --- |
| QGQLEESGGGLVQAGGSLRLSCAASGRIFRYNTMGWYRQAPGKERELVADITSSDSSTYYADSVKGRFTISRDNAKNTLYLQMNSLKPEDTEVYFCAARDSGYGWRYYYWGHGTQVTVSS | low polyreactivity |
| QGQLEESGGGLVQAGGSLRLSCAASGRTFAFYTMGWYRQAPGKERELVAAITRGGSTYYADSVKGRFTISRDNAKNTVYVQMNSLKPEDTAVYYCAASTRYYSQQFDYWGQGTQVTVSS | high polyreactivity |
| QGQLVESGEGLVQAGGSLRLRCAASGSIIRYYTMGGYRQAPGKERELVAAISWSGGSTYYADSVKGRFTISRDNANNTVYLQMNSLKPEETSVYYCNAVSFAYNPYSATYDYWGQGTQVTVSS | high polyreactivity |
| QGQLVESGGALVQAGGSLRLSCAASGSTFVRNAMGWYRPAPRKERELVAAISNVGSTYYADSVKGRFTISRDNAKNTVYFQKNSLKPEDTAVYYCTKQLWYHKFNYWGQGTQVTVSS | low polyreactivity |
| QGQLVESGGGLFQAGGSLRLSCAASGRIFRRYAMGWDIQAPGKERELVAAISRGGSTYYADSVKGRFTISRDNAKNTVYLQMNSLKPEDTAVYYCAAYSQSTSFGGYDSWGQGTQVTVSS | high polyreactivity |
| QGQLVESGGGLGQAGGSLRLSCAASGSTVVLYAMGWYRQARGKERELVAAISGGATTTYADSVKGRFTISRDNAKNTVYLQMNSLKPEDTAVYYCAADFSTFVLSGAAMDYWGQGTQVTVSS | low polyreactivity |
| QGQLVESGGGLGQEGCSLRLSCAASGNTFIINAMGWYRQARGNERELVAAITSGGSTNYADSVKGRFTISGDNAKNTVYLQMNSLKPEDTAVYDCAARTRLYYYKVRKYRMDYWGQGTQVTVSS | low polyreactivity |
| QGQLVESGGGLVQAGASLSLTSDDYRTIVKTYAMGSYRPAPGKESEMVAAISWRGGSTYYADSVKGRITISRDNAKNTVYLQMNSMKPVDTAVYYCVAVRNFGTRTLWYRYGYWGQGSQVTVSS | high polyreactivity |
| QGQLVESGGGLVQAGGCLRLSCAASGGTFDYNAMGWYRQAPGKERELVAAITSGASTYYADSVKGRFTISRDNAKNTVYLQMNSLKPQDTAVYYCAKGPTPGYDYWGQGTQVTVSS | low polyreactivity |
| QGQLVESGGGLVQAGGRLRLSCAASGSIFRAYAMGWYRQAPGKERELVADISRSGGSTYYADSVKGRFTISRDNAKNTVYLQMNSLKPEDTAVYYCYAPVGWSVEARVSRGYEDQYDYWGQGSQVTVSS | low polyreactivity |
| QGQLVESGGGLVQAGGRLRLTCAASGSIFAGNAMGWYRQAPGKERELVAAIRWSTGSTYYADSVKGRFTISRDNAKNTVYLQLNSLKPEDTAVYYCAATDTTFYGIVRYEYWGQGTQVTVSS | low polyreactivity |
| QGQLVESGGGLVQAGGRLSLSCAASGFTFDNYAMGWYSQAPGKERELVAAITSGGSTNYADSVKGRFTISRDNAKNTVYLQMNSLKPEDTAVYYCNVERSIQAQVNAEYYYWGQGTQVSVSS | low polyreactivity |
| QGQLVESGGGLVQAGGSLRLSCAASGFIFGTYAMGWYRQAPGKERELVAAITGSGGDTYYADSVKGRFTISRDNAKNTVYLQMNSLKPEDTAVYYCAAVRPPTPSRRREDYWGQGTQVTVSS | low polyreactivity |
| QGQLVESGGGLVQAGGSLRLSCAASGFTFPGYAMGWYRQAPGNVRELVAAITGSGGRTYYADSVKGRFTISRDNAKNTVYLQMNSLKPEDTAVYYCLARSSYNWYDYWGQGTQVTVSS | high polyreactivity |
| QGQLVESGGGLVQAGGSLRLSCAASGIIFILYTMGWYRQAPGKEREFVATISSGGGSTFYADSVKGRFTISRDNAKNTVYLQMNSLKPEDTAVYYCAAEQLYYCERYYIWGYYYWGQGTQVTVSS | low polyreactivity |
| QGQLVESGGGLVQAGGSLRLSCAASGLTFGSYTMGWYRQAPGKERELVAAITSDGSTNYADSVKGRFTISRDNAKNTVYLQMNSLKPEDTAVYYCAATRVSYRQFKAIGYHYWGQGTQVTVSS | high polyreactivity |
| QGQLVESGGGLVQAGGSLRLSCAASGRIFAGNAMGWYRQAPGKDRELVAAISKSGRSTYYADSVKGRFTISRDNAKNTVYLQMNSLKPEDTAVYYCAKLYYPVSDQYDYYYWGQGTQVTVSS | low polyreactivity |
| QGQLVESGGGLVQAGGSLRLSCAASGRTFTDYAMGWYRQAPGKEWELVADISGSGGSTYYADSVKGRFTISRDNAKNTVYLQMNSLNPEDTAVYYCNAVGSRRDKFDYWGQGTQVTVSS | low polyreactivity |
| QGQLVESGGGLVQAGGSLRLSCAASGSIFFGNAMGWYRQAPGKERELVAGITGGGSTYYADSVKGRFTISRDNAKNTVYLQMNSLKPEDTAVYYCNKKAYRKTGMDYWGQGTQVTVSS | low polyreactivity |
| QGQLVESGGGLVQAGGSLRLSCAASGSIFIGNAMGWYRQAPGKERELVAAITGRGGRTYYADSVKGRFSISRDNAKNTVYLQMNSLKPVDTAVYDCNARSGSSYSGYYYWGQGTQVTVSS | high polyreactivity |
| QGQLVESGGGLVQAGGSLRLSCAASGSIFRPYPMGWYRQAPGKERELVATISSTGITNYADSVKGRFTISRDNAKNTVYLQMNSLKPEDTADYYCSAGLWYSYDYWGQGTQVTVSS | high polyreactivity |
